This note sets out measurements from patent US20100215651A1 (GLENMARK PHARMACEUTICALS S A, published 2010).

T1: human CD19 (human, UniProt P15391 20-556)
T1 construct: CD19 as expressed on Raji, NALM-6 and SU-DHL-6 cells; also called CD19 antigen; B-cell surface antigen B4
T1 sequence: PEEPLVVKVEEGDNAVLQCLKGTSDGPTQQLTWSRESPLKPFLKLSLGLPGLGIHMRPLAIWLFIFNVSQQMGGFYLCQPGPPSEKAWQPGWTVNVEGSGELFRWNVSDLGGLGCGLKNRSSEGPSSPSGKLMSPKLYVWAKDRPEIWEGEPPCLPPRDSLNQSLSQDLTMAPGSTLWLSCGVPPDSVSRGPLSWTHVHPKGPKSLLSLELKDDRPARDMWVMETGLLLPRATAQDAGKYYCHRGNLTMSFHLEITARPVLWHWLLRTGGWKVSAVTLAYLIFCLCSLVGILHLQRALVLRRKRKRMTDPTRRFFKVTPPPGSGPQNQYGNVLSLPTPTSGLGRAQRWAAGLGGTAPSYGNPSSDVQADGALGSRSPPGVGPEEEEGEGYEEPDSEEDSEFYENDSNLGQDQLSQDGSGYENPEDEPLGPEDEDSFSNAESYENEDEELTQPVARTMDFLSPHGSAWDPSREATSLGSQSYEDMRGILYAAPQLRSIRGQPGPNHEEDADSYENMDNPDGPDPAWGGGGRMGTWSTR

B1: VH16/VL43-V3Q/T7S (antibody, human IgG1, V domains shown)
VH: QVQLVQSGGGVVQPGRSLRLSCAASGVSLPDYGVSWVRQAPGKGLEWVAVIWGSETTYYNSALKSRFTISRDNSKNTLYLQMNSLRAEDTAVYYCARHYYYGGSYAMDYWGQGTLVTVSS
VL: DIQMTQSPSSLSASVGDRVTITCRASQDISKYLNWYQQKPGKAPKLLIYHTSRLHSGVPSRFSGSGSGTDFTLTISSLQPEDFATYYCQQGNTLPYTFGPGTKVDIKR
notes: substitutions in Kabat numbering
B2: VH16-R94K/VL43-V3Q/T7S (antibody, human IgG1)
heavy: not shown
VL: DIQMTQSPSSLSASVGDRVTITCRASQDISKYLNWYQQKPGKAPKLLIYHTSRLHSGVPSRFSGSGSGTDFTLTISSLQPEDFATYYCQQGNTLPYTFGPGTKVDIKRTVAA
notes: Full-length human IgG1/kappa; substitutions in Kabat numbering
B3: VH16-Q6E/VL43-V3Q/T7S (antibody, human IgG1, name in Kabat numbering, V domains shown)
VH: QVQLVESGGGVVQPGRSLRLSCAASGVSLPDYGVSWVRQAPGKGLEWVAVIWGSETTYYNSALKSRFTISRDNSKNTLYLQMNSLRAEDTAVYYCARHYYYGGSYAMDYWGQGTLVTVSS
VL: DIQMTQSPSSLSASVGDRVTITCRASQDISKYLNWYQQKPGKAPKLLIYHTSRLHSGVPSRFSGSGSGTDFTLTISSLQPEDFATYYCQQGNTLPYTFGPGTKVDIKR
notes: as for B1
B4: VH2VL40 (antibody, V domains shown)
VH: EVQLVESGGGVVQPGRSLRLSCAASGVSLPDYGVSWVRQAPGKGLEWVAVIWGSETTYYNSALKSRFTISRDNSKNTLYLQMNSLKTEDTAVYYCTTHYYYGGSYAMDYWGQGTLVTVSS
VL: DIVMTQTPSSLSASVGDRVTITCRASQDISKYLNWYQQKPGKVPNLLIYHTSRLHSGVPSRFSGSGSGTEFTLTISSLQPEDFATYYCQQGNTLPYTFGGGTKVEIKR
B5: VH5VL39 (antibody, V domains shown)
VH: EVQLVESGGGLVKPGGSLRLSCAASGVSLPDYGVSWIRQAPGKGLEWVSVIWGSETTYYNSALKSRFTISRDNAKNSLYLQMDSLRVEDTAVYYCAGHYYYGGSYAMDYWGQGTLVTVSS
VL: DIVMTQSPSTLSASVGDRVTITCRASQDISKYLNWYQQKPGKAPKLLIYHTSRLHSGVPSRFSGSGSGTEFTLTISSLQPDDFATYYCQQGNTLPYTFGQGTKVEIKR
B6: VH20/VL44 (antibody, human IgG1, V domains shown)
VH: QVQLVQSGGGLVQPGGSLRLSCVASGVSLPDYGVSWVRQAPGKGLEWVSVIWGSETTYYNSALKSRFTISRDNAKNSLYLQMNSLRAEDTAVYYCARHYYYGGSYAMDYWGQGTLVTVSS
VL: DIVMTQSPSSMSASIGDRVTITCRASQDISKYLNWYQQKPGKAPNLLIYHTSRLHSGVPSRFSGSGSGTEFTLTISSLQPEDFATYYCQQGNTLPYTFGQGTKLEIKR
B7: VH5VL40 (antibody, V domains shown)
VH: EVQLVESGGGLVKPGGSLRLSCAASGVSLPDYGVSWIRQAPGKGLEWVSVIWGSETTYYNSALKSRFTISRDNAKNSLYLQMDSLRVEDTAVYYCAGHYYYGGSYAMDYWGQGTLVTVSS
VL: DIVMTQTPSSLSASVGDRVTITCRASQDISKYLNWYQQKPGKVPNLLIYHTSRLHSGVPSRFSGSGSGTEFTLTISSLQPEDFATYYCQQGNTLPYTFGGGTKVEIKR
B8: VH5VL43 (antibody, V domains shown)
VH: EVQLVESGGGLVKPGGSLRLSCAASGVSLPDYGVSWIRQAPGKGLEWVSVIWGSETTYYNSALKSRFTISRDNAKNSLYLQMDSLRVEDTAVYYCAGHYYYGGSYAMDYWGQGTLVTVSS
VL: DIVMTQTPSSLSASVGDRVTITCRASQDISKYLNWYQQKPGKAPKLLIYHTSRLHSGVPSRFSGSGSGTDFTLTISSLQPEDFATYYCQQGNTLPYTFGPGTKVDIKR
B9: VH20/VL39 (antibody, human IgG1, V domains shown)
VH: QVQLVQSGGGLVQPGGSLRLSCVASGVSLPDYGVSWVRQAPGKGLEWVSVIWGSETTYYNSALKSRFTISRDNAKNSLYLQMNSLRAEDTAVYYCARHYYYGGSYAMDYWGQGTLVTVSS
VL: DIVMTQSPSTLSASVGDRVTITCRASQDISKYLNWYQQKPGKAPKLLIYHTSRLHSGVPSRFSGSGSGTEFTLTISSLQPDDFATYYCQQGNTLPYTFGQGTKVEIKR
B10: VH20/VL43 (antibody, human IgG1, V domains shown)
VH: QVQLVQSGGGLVQPGGSLRLSCVASGVSLPDYGVSWVRQAPGKGLEWVSVIWGSETTYYNSALKSRFTISRDNAKNSLYLQMNSLRAEDTAVYYCARHYYYGGSYAMDYWGQGTLVTVSS
VL: DIVMTQTPSSLSASVGDRVTITCRASQDISKYLNWYQQKPGKAPKLLIYHTSRLHSGVPSRFSGSGSGTDFTLTISSLQPEDFATYYCQQGNTLPYTFGPGTKVDIKR
B11: VH16/VL40 (antibody, human IgG1, V domains shown)
VH: QVQLVQSGGGVVQPGRSLRLSCAASGVSLPDYGVSWVRQAPGKGLEWVAVIWGSETTYYNSALKSRFTISRDNSKNTLYLQMNSLRAEDTAVYYCARHYYYGGSYAMDYWGQGTLVTVSS
VL: DIVMTQTPSSLSASVGDRVTITCRASQDISKYLNWYQQKPGKVPNLLIYHTSRLHSGVPSRFSGSGSGTEFTLTISSLQPEDFATYYCQQGNTLPYTFGGGTKVEIKR
B12: VH16/VL44 (antibody, human IgG1, V domains shown)
VH: QVQLVQSGGGVVQPGRSLRLSCAASGVSLPDYGVSWVRQAPGKGLEWVAVIWGSETTYYNSALKSRFTISRDNSKNTLYLQMNSLRAEDTAVYYCARHYYYGGSYAMDYWGQGTLVTVSS
VL: DIVMTQSPSSMSASIGDRVTITCRASQDISKYLNWYQQKPGKAPNLLIYHTSRLHSGVPSRFSGSGSGTEFTLTISSLQPEDFATYYCQQGNTLPYTFGQGTKLEIKR
B13: VH20/VL40 (antibody, human IgG1, V domains shown)
VH: QVQLVQSGGGLVQPGGSLRLSCVASGVSLPDYGVSWVRQAPGKGLEWVSVIWGSETTYYNSALKSRFTISRDNAKNSLYLQMNSLRAEDTAVYYCARHYYYGGSYAMDYWGQGTLVTVSS
VL: DIVMTQTPSSLSASVGDRVTITCRASQDISKYLNWYQQKPGKVPNLLIYHTSRLHSGVPSRFSGSGSGTEFTLTISSLQPEDFATYYCQQGNTLPYTFGGGTKVEIKR
B14: VH16/VL39 (antibody, human IgG1, V domains shown)
VH: QVQLVQSGGGVVQPGRSLRLSCAASGVSLPDYGVSWVRQAPGKGLEWVAVIWGSETTYYNSALKSRFTISRDNSKNTLYLQMNSLRAEDTAVYYCARHYYYGGSYAMDYWGQGTLVTVSS
VL: DIVMTQSPSTLSASVGDRVTITCRASQDISKYLNWYQQKPGKAPKLLIYHTSRLHSGVPSRFSGSGSGTEFTLTISSLQPDDFATYYCQQGNTLPYTFGQGTKVEIKR
B15: VH16-R94K/VL43-P44V (antibody, human IgG1, V domains shown)
VH: QVQLVQSGGGVVQPGRSLRLSCAASGVSLPDYGVSWVRQAPGKGLEWVAVIWGSETTYYNSALKSRFTISRDNSKNTLYLQMNSLRAEDTAVYYCAKHYYYGGSYAMDYWGQGTLVTVSS
VL: DIVMTQTPSSLSASVGDRVTITCRASQDISKYLNWYQQKPGKAVKLLIYHTSRLHSGVPSRFSGSGSGTDFTLTISSLQPEDFATYYCQQGNTLPYTFGPGTKVDIKR
notes: as for B2

The first experiment has as its target T1, human CD19. Nature of the experiment: flow cytometry, Raji cells, MPF vs chimeric FMC63. Here is the method: (§1) Binding of the CD19 humanized monoclonal antibodies by flow cytometry to Raji tumor cells (human Burkitt lymphoma, DSMZ ACC319), NALM-6 (human B cell precursor leukemia, DSMZ ACC128) and SU-DHL-6 (human B cell lymphoma, DSMZ ACC572) (all cell lines from DSMZ Braunschweig, Deutschland) was assessed. Cells were incubated with serial dilutions of each humanized monoclonal antibody. An irrelevant human IgG1 was used as a negative control. The cells were washed and detected by a phycoerythrin-labeled (PE) anti-human secondary antibody (eBioscience, CA, USA) and analyzed by flow cytometry. […] From MFI versus antibody concentration curves, Mid-Point Fluorescence (MPF) value for each anti-CD19 humanized antibody was calculated using the software GraphPad Prism 5 (CA, USA).
In the case of B1, the “relative MPF (% of chimeric FMC63)” value amounted to 4.93%. On the same count and under the same terms, to B2 belongs 27.8%; to B3, 5.68%.

The target of a further experiment is T1, human CD19. Nature of the experiment: flow cytometry on Raji cells, PE-labelled anti-human secondary antibody, MFI against antibody concentration. Here is the method: These immunoglobulins were assessed for antigen-binding affinity by half-maximal binding assays on B-cell lymphoma cell-lines (FACS) and compared to a chimeric version of FMC63 (this was to standardized level of staining from the anti-human Fc PE-labeled detection-antibody, as described in Example 2).
as §1
For B4, the binding result was “no binding (tested: about 10 ug/ml (Log(ug/ml) about 1))”. The same measure, in the same setting: to B5 belongs “no binding (tested: about 10 ug/ml (Log(ug/ml) about 1))”; to B6, “binds”; to B7, “no binding (tested: about 10 ug/ml (Log(ug/ml) about 1))”.

In the case of B8, the binding result is recorded as “no binding (tested: about 10 ug/ml (Log(ug/ml) about 1))”. On the same count and under the same terms, to B9 belongs “binds”; to B10, “binds”. For B11, the binding result is recorded as “binds”.

Regarding B12, the binding result is “binds”. Still for that read-out and setting: to B13 belongs “binds”. Still for that read-out and setting: to B14 belongs “binds”.

In another experiment the target is T1, human CD19. Briefly: flow cytometry, Raji cells, MPF vs chimeric FMC63. This is another data set of the same source. The protocol: as §1
B15: the “relative MPF (% of chimeric FMC63)” value came out at 52.9%.

The next experiment addresses T1, human CD19. Nature of the experiment: flow cytometry, NALM-6 cells, MPF vs chimeric FMC63. The protocol:
as §1
For the molecule B15, the “relative MPF (% of chimeric FMC63)” value came to 32.9%.
